Kd and koff data for one molecule are collected here from publication PMC9845149, “Interplay between C1-inhibitor and group IIA secreted phospholipase A2 impairs their respective function” (Immunologic Research, 2022).

For this test, the target named is T1, human plasma-derived C1-esterase inhibitor (human, UniProt P05155 23-500).
T1 construct: Glycoprotein from plasma; also called pdC1-INH; C1-INH; source: bought: Cinryze, Takeda Pharmaceutical Company (human plasma-derived); also in plasma of healthy donors (functional assay)
T1 sequence (looked up): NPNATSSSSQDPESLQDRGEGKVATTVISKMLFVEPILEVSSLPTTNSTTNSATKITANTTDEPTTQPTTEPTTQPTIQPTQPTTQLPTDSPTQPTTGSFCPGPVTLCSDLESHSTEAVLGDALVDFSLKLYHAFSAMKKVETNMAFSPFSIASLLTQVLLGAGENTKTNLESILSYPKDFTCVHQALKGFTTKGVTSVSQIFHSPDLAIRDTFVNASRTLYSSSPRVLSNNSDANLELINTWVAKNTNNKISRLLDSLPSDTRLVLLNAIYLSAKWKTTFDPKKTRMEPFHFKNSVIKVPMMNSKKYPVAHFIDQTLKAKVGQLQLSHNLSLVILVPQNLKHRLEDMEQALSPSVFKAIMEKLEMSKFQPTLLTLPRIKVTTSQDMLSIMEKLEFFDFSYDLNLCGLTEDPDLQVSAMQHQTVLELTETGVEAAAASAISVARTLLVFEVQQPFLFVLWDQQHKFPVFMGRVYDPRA
Briefly: SPR; Biacore 3000; hGIIA N1A immobilised at 800 RU on a CM5 chip (EDC/NHS), BSA as reference channel; C1-INH injected at 10, 20, 30, 40, 50 µM in HBS (10 mM Hepes, pH 7.4, 150 mM NaCl, 3 mM EDTA), 30 µL/min; 1:1 Langmuir model. Particulars: both partners purified. For orientation: SPR reads the build-up and loss of mass on a sensor chip optically.

As a reminder, the Kd is a measure of binding affinity in units of concentration. A higher Kd goes with lower affinity. Usually koff stands for the first-order rate constant of dissociation. Lower therefore signals slow dissociation.

B1: Recombinant human group IIA secreted phospholipase A2, N1A catalytically active mutant (enzyme, UniProt P14555 21-144, looked up)
chain: ALVNFHRMIKLTTGKEAALSYGFYGCHCGVGGRGSPKDATDRCCVTHDCCYKRLEKRGCGTKFLSYKFSNSGSRITCAKQDSCRSQLCECDKAAATCFARNKTTYNKKYQYYSNKHCRGSTPRC
notes: human group IIA secreted phospholipase A2 (hGIIA), UniProt P14555; N1A mutation facilitates the removal of the initiator methionine; PDB 1DCY chain A covers aa 1-124; also called hGIIA; hGIIA N1A
Take B1: binding was characterised by a dissociation constant (Kd) of 6.7 µM and the off-rate constant (koff) was 0.0125 s⁻¹.
